experiment: [3H]gabapentin binding of C-terminally truncated porcine α2δ-1 subunit mutants expressed in COS-7 cells; settings: C-terminal deletions of the δ component, residues of SEQ ID NO:5
Description: All media contained 50 units/ml penicillin and 50 microgramm per ml streptomycin. COS-7 cells were maintained in Dulbecco's modified Eagle's medium+glutamax, 10% fetal bovine serum (gamma irradiated) in a 37° C./5% CO2 incubator and passaged by trypsinization. For transient expression experiments, 150-mm culture dishes were seeded with […] and incubated for 16 h. Cells were then washed twice with 30 ml of optiMEM-1 and transfected (t=0 h) with 30 microgramm of plasmid DNA by lipofectamine-mediated transfection in 21 ml of optiMEM-1. At t=6 h, a further 21 ml of optiMEM-1 was added. At t=24 h, the medium was replaced with 42 ml of optiMEM-1. At t=48 h, the cells were washed twice with 30 ml of phosphate-buffered saline and then harvested in 3 ml of buffer A ([…], 1 mM EGTA, 20% glycerol, 10 mm HEPES, pH 7.4, at 4° C.) plus 0.1 mM phenymethylsulfonyl fluoride using a cell scraper.
All subsequent operations were performed at 4° C. The cells were rotated on a Spiramix (Denley Instruments) for 30 min, centrifuged at 20,000×g for 5 min, resuspended in 1 ml of buffer A, recentrifuged at 20,000×g for 5 min, and finally resuspended in 400 microliter of buffer A. Membrane preparations were stored at −70° C. until required.
Protein concentrations were determined by the method of Bradford using bovine serum albumin as a standard. [^3H]Gabapentin binding assays were performed as described previously. For saturation analysis, incubations were performed in duplicate. All other incubations were performed in triplicate. SDS-polyacrylamide gel electrophoresis and Western blotting were performed using the Novex gel and buffer system (Novex Europe, Frankfurt, Germany). Molecular weights were determined by reference to Kaleidoscope markers (Bio-Rad). Detection was performed using the ECL system (Amersham).

Molecule	[^3H]gabapentin binding
mutant extending to residue 1018: C-terminally truncated porcine α2δ-1 subunit, residues 1019 to 1091 deleted (protein, listed as Sus scrofa) MAAGCLLALTLTLFQSLLIGPSSQEPFPSAVTIKSWVDKMQEDLVTLAKTASGVNQLVDIYEKYQDLYTVEPNNARQLVEIAARDIEKLLSNRSKALVRLALEAEKVQAAHQWREDFASNEVVYYNAKDDLDPEKNDSEPGSQRIKPVFIDDANFGRQISYQHAAVHIPTDIYEGSTIVLNELNWTSALDEVFKKNREEDPSLLWQVFGSATGLARYYPASPWVDNSRTPNKIDLYDVRRRPWYIQGAASPKDMLILVDVSGSVSGLTLKLIRTSVSEMLETLSDDDFVNVASFNSNAQDVSCFQHLVQANVRNKKVLKDAVNNITAKGITDYKKGFSFAFEQLLNYNVSRANCNKIIMLFTDGGEERAQEIFAKYNKDKKVRVFTFSVGQHNYDRGPIQWMACENKGYYYEIPSIGAIRINTQEYLDVLGRPMVLAGDKAKQVQWTNVYLDALELGLVITGTLPVFNITGQNENKTNLKNQLILGVMGVDVSLEDIKRLTPRFTLCPNGYYFAIDPNGYVLLHPNLQPKNPKSQEPVTLDFLDAELENDIKVEIRNKMIDGESGEKTFRTLVKSQDERYIDKGNRTYTWTPVNGTDYSLALVLPTYSFYYIKAKIEETITQARSKKGKMKDSETLKPDNFEESGYTFIAPRDYCNDLKISDNNTEFLLNFNEFIDRKTPNNPSCNTDLINRVLLDAGFTNELVQNYWSKQKNIKGVKARFVVTDGGITRVYPKEAGENWQENPETYEDSFYKRSLDNDNYVFTAPYFNKSGPGAYESGIMVSKAVEIYIQGKLLKPAVVGIKIDVNSWIENFTKTSIRDPCAGPVCDCKRNSDVMDCVILDDGGFLLMANHDDYTNQIGRFFGEIDPSLMRHLVNISVYAFNKSYDYQSVCEPGAAPKQGAGHRSAYVPSIADILHIGWWATAAAWSILQQFLLSLTFPRLLEAVEMEDDDFTASLSKQSCITEQTQYFFDNDSKSFSGVLDCGNCSRIFHVEKLMNTNLIFIMVESKGTCPCDTRL	exhibit gabapentin binding activity
mutant extending to residue 1063: C-terminally truncated porcine α2δ-1 subunit, residues 1064 to 1091 deleted (protein, listed as Sus scrofa) MAAGCLLALTLTLFQSLLIGPSSQEPFPSAVTIKSWVDKMQEDLVTLAKTASGVNQLVDIYEKYQDLYTVEPNNARQLVEIAARDIEKLLSNRSKALVRLALEAEKVQAAHQWREDFASNEVVYYNAKDDLDPEKNDSEPGSQRIKPVFIDDANFGRQISYQHAAVHIPTDIYEGSTIVLNELNWTSALDEVFKKNREEDPSLLWQVFGSATGLARYYPASPWVDNSRTPNKIDLYDVRRRPWYIQGAASPKDMLILVDVSGSVSGLTLKLIRTSVSEMLETLSDDDFVNVASFNSNAQDVSCFQHLVQANVRNKKVLKDAVNNITAKGITDYKKGFSFAFEQLLNYNVSRANCNKIIMLFTDGGEERAQEIFAKYNKDKKVRVFTFSVGQHNYDRGPIQWMACENKGYYYEIPSIGAIRINTQEYLDVLGRPMVLAGDKAKQVQWTNVYLDALELGLVITGTLPVFNITGQNENKTNLKNQLILGVMGVDVSLEDIKRLTPRFTLCPNGYYFAIDPNGYVLLHPNLQPKNPKSQEPVTLDFLDAELENDIKVEIRNKMIDGESGEKTFRTLVKSQDERYIDKGNRTYTWTPVNGTDYSLALVLPTYSFYYIKAKIEETITQARSKKGKMKDSETLKPDNFEESGYTFIAPRDYCNDLKISDNNTEFLLNFNEFIDRKTPNNPSCNTDLINRVLLDAGFTNELVQNYWSKQKNIKGVKARFVVTDGGITRVYPKEAGENWQENPETYEDSFYKRSLDNDNYVFTAPYFNKSGPGAYESGIMVSKAVEIYIQGKLLKPAVVGIKIDVNSWIENFTKTSIRDPCAGPVCDCKRNSDVMDCVILDDGGFLLMANHDDYTNQIGRFFGEIDPSLMRHLVNISVYAFNKSYDYQSVCEPGAAPKQGAGHRSAYVPSIADILHIGWWATAAAWSILQQFLLSLTFPRLLEAVEMEDDDFTASLSKQSCITEQTQYFFDNDSKSFSGVLDCGNCSRIFHVEKLMNTNLIFIMVESKGTCPCDTRLLIQAEQTSDGPDPCDMVKQPRYRKGPDVCFDNNALEDYTDCGGVS	exhibit gabapentin binding activity
mutant extending to residue 1036: C-terminally truncated porcine α2δ-1 subunit, residues 1037 to 1091 deleted (protein, listed as Sus scrofa) MAAGCLLALTLTLFQSLLIGPSSQEPFPSAVTIKSWVDKMQEDLVTLAKTASGVNQLVDIYEKYQDLYTVEPNNARQLVEIAARDIEKLLSNRSKALVRLALEAEKVQAAHQWREDFASNEVVYYNAKDDLDPEKNDSEPGSQRIKPVFIDDANFGRQISYQHAAVHIPTDIYEGSTIVLNELNWTSALDEVFKKNREEDPSLLWQVFGSATGLARYYPASPWVDNSRTPNKIDLYDVRRRPWYIQGAASPKDMLILVDVSGSVSGLTLKLIRTSVSEMLETLSDDDFVNVASFNSNAQDVSCFQHLVQANVRNKKVLKDAVNNITAKGITDYKKGFSFAFEQLLNYNVSRANCNKIIMLFTDGGEERAQEIFAKYNKDKKVRVFTFSVGQHNYDRGPIQWMACENKGYYYEIPSIGAIRINTQEYLDVLGRPMVLAGDKAKQVQWTNVYLDALELGLVITGTLPVFNITGQNENKTNLKNQLILGVMGVDVSLEDIKRLTPRFTLCPNGYYFAIDPNGYVLLHPNLQPKNPKSQEPVTLDFLDAELENDIKVEIRNKMIDGESGEKTFRTLVKSQDERYIDKGNRTYTWTPVNGTDYSLALVLPTYSFYYIKAKIEETITQARSKKGKMKDSETLKPDNFEESGYTFIAPRDYCNDLKISDNNTEFLLNFNEFIDRKTPNNPSCNTDLINRVLLDAGFTNELVQNYWSKQKNIKGVKARFVVTDGGITRVYPKEAGENWQENPETYEDSFYKRSLDNDNYVFTAPYFNKSGPGAYESGIMVSKAVEIYIQGKLLKPAVVGIKIDVNSWIENFTKTSIRDPCAGPVCDCKRNSDVMDCVILDDGGFLLMANHDDYTNQIGRFFGEIDPSLMRHLVNISVYAFNKSYDYQSVCEPGAAPKQGAGHRSAYVPSIADILHIGWWATAAAWSILQQFLLSLTFPRLLEAVEMEDDDFTASLSKQSCITEQTQYFFDNDSKSFSGVLDCGNCSRIFHVEKLMNTNLIFIMVESKGTCPCDTRLLIQAEQTSDGPDPCDMVK	exhibit gabapentin binding activity
